Data: patent US20230381281A1, “PHARMACEUTICAL COMPOSITION COMPRISING GLUCAGON/GLP-1/GIP TRIPLE AGONIST OR LONG-ACTING CONJUGATE THEREOF FOR PREVENTING OR TREATING LUPUS-RELATED DISEASES” (HANMI PHARM. CO., LTD., priority 2020, published 2023)
Bridge positions count the residues as written; N and C are the ends. Square brackets hold non-standard residues; d marks the D form. Ends that are not written are not given here. Aib = CC(C)(N)C(=O)O

Experiments:
Format in all cases: cell-based
human GIP receptor = molecular target: T1, human GIP receptor (Homo sapiens, UniProt P48546); test: In vitro cAMP activity in human GIP receptor-expressing CHO cells (LANCE cAMP kit); conditions: long-acting conjugates; relative titer from cAMP EC50 compared to human GIP
T1 construct: expressed in transfected cells; host or cells: Chinese hamster ovary (CHO)
T1 sequence (P48546 22-466): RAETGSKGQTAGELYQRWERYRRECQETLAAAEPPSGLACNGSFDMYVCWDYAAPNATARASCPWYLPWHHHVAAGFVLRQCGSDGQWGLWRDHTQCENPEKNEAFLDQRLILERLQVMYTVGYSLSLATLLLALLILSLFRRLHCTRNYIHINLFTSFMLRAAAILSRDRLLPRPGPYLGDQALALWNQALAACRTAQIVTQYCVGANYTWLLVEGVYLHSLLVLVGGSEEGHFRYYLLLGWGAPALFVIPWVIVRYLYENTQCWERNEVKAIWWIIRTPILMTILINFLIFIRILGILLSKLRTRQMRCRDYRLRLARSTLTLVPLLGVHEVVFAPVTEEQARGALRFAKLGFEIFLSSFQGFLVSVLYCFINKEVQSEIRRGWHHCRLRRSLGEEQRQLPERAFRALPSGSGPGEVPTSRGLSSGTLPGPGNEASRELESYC
Method: (§1) In order to measure the activity of the triple agonists and long-acting conjugates thereof prepared according to Examples 1 and 2, the in-vitro cell activity was measured using cell lines transformed with GLP-1 receptor, glucagon (GCG) receptor, and GIP receptor, respectively.
(§2) The cell lines were transformed to express human GLP-1 receptor, human GCG receptor and human GIP receptor genes in Chinese hamster ovary (CHO), respectively, and are suitable for measuring the activities of GLP-1, GCG, and GIP. Therefore, the activity for each part was measured using each transformed cell line.
To measure the GIP activity of the triple agonists and long-acting conjugates thereof prepared according to Examples 1 and 2, human GIP was diluted from 50 nM to […] by 4-fold serial dilution, and the triple agonists and long-acting conjugates thereof prepared according to Examples 1 and 2 were diluted from 400 nM to 0.00038 nM by 4-fold serial dilution. The culture medium was removed from the cultured human GIP receptor-expressing CHO cells, 5 μl of each of the serially diluted materials was added to the cells, and then 5 μl of buffer containing cAMP antibody was added to the cells, followed by 15 minutes of incubation at room temperature. Then, cells were lysed by adding 10 μl of detection mix containing cell lysis buffer, and reacted at room temperature for 90 minutes. The cell lysate after the reaction had been completed, was applied to the LANCE cAMP kit (PerkinElmer, USA) to calculate the EC50 value through the accumulated cAMP, and then compared with each other.

human GLP-1 receptor = molecular target: T2, human GLP-1 receptor (Homo sapiens, UniProt P43220); test: In vitro cAMP activity in human GLP-1 receptor-expressing CHO cells (LANCE cAMP kit); conditions: long-acting conjugates; relative titer from cAMP EC50 compared to human GLP-1
T2 construct: expressed in transfected cells; host or cells: Chinese hamster ovary (CHO)
Method: as §1, §2
To measure the GLP-1 activity of the triple agonists and long-acting conjugates prepared according to Examples 1 and 2, human GLP-1 was diluted from 50 nM to […] by 4-fold serial dilution, and the triple agonists and long-acting conjugates thereof prepared according to Examples 1 and 2 were diluted from 400 nM to 0.00038 nM by 4-fold serial dilution. The culture medium was removed from the cultured human GLP-1 receptor-expressing CHO cells, 5 μl of each of the serially diluted materials was added to the cells, and then 5 μl of buffer containing cAMP antibody was added to the cells, followed by 15 minutes of incubation at room temperature. Then, cells were lysed by adding 10 μl of detection mix containing cell lysis buffer, and reacted at room temperature for 90 minutes. The cell lysate after the reaction had been completed, was applied to the LANCE cAMP kit (PerkinElmer, USA) to calculate the EC50 value through the accumulated cAMP, and then compared with each other.

human GCG receptor = molecular target: T3, human GCG receptor (Homo sapiens, UniProt P47871); test: In vitro cAMP activity in human GCG receptor-expressing CHO cells (LANCE cAMP kit); conditions: for In vitro activity compared to native peptide (%) vs Glucagon: long-acting conjugates, relative titer from cAMP EC50 compared to human GCG; for activity on the glucagon receptor: statement in words in the description
T3 construct: expressed in transfected cells; host or cells: Chinese hamster ovary (CHO)
Method: as §1, §2
To measure the GCG activity of the triple agonists and long-acting conjugates prepared according to Examples 1 and 2, human GCG was diluted from 50 nM to […] by 4-fold serial dilution, and the triple agonists and long-acting conjugates thereof prepared according to Examples 1 and 2 were diluted from 400 nM to 0.00038 nM by 4-fold serial dilution. The culture medium was removed from the cultured human GCG receptor-expressing CHO cells, 5 μl of each of the serially diluted materials was added to the cells, and then 5 μl of buffer containing cAMP antibody was added to the cells, followed by 15 minutes of incubation at room temperature. Then, cells were lysed by adding 10 μl of detection mix containing cell lysis buffer, and reacted at room temperature for 90 minutes. The cell lysate after the reaction had been completed, was applied to the LANCE cAMP kit (PerkinElmer, USA) to calculate the EC50 value through the accumulated cAMP, and then compared with each other.

T3 sequence (P47871 26-477): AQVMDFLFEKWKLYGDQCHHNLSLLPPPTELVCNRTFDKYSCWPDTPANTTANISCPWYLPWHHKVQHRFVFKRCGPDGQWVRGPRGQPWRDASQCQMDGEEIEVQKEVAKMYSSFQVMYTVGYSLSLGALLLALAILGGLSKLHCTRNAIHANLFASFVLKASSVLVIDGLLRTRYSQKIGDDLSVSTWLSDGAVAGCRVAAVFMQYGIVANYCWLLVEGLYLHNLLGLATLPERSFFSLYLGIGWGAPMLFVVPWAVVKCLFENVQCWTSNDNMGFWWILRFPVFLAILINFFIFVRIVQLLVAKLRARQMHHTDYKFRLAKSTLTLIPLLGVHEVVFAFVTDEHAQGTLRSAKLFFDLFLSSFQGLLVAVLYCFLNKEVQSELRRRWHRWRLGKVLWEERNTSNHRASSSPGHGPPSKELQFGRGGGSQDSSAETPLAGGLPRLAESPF
T2 sequence (P43220 24-463): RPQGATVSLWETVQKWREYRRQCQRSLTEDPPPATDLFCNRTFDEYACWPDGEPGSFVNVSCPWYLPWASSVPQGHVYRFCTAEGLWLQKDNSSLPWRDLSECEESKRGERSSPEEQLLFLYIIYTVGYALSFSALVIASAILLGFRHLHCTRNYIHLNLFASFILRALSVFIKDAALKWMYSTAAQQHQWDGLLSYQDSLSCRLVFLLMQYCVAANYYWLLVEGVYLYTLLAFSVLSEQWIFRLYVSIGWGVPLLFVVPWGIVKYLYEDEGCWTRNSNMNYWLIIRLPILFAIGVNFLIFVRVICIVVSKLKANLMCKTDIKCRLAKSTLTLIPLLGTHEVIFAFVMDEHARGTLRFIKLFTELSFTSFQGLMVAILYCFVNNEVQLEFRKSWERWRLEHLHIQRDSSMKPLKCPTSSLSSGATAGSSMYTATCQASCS

In vitro activity compared to native peptide (%) vs GIP (human GIP receptor) [%] | In vitro activity compared to native peptide (%) vs GLP-1 (human GLP-1 receptor) [%] | In vitro activity compared to native peptide (%) vs Glucagon (human GCG receptor) [%] | activity on the glucagon receptor (human GCG receptor) | Substance
0.6 | 2.1 | 13.5 | very high activity | 43 (Y[Aib]QGTFTSDYSKYLDEKRAKEFVQWLLDHHCSSGQPPPS; bridge 16-20) [compound 43]
0.7 | 15.4 | 6.9 |  | 50 (H[Aib]QGTFTSDYSKYLDEKRAKEFVQWLLDHHPSSGQPPPSC; bridge 16-20) [compound 50]
0.3 | 0.3 | 4.0 | very high activity | 96 (Y[Aib]QGTFTSDYSKYLDEKRAKEFVQWLLDHCPSSGQPPPS; bridge 16-20) [compound 96]

Continued, substance first:

Substance | In vitro activity compared to native peptide (%) vs GIP (human GIP receptor) [%] | In vitro activity compared to native peptide (%) vs GLP-1 (human GLP-1 receptor) [%] | In vitro activity compared to native peptide (%) vs Glucagon (human GCG receptor) [%] | activity on the glucagon receptor (human GCG receptor)
42 (Y[Aib]QGTFTSDYSKYLDEKRAKEFVQWLLDHHPSSGQPPPSC; bridge 16-20) [compound 42] | 1.2 | 3.1 | 23.1 | very high activity
77 (Y[Aib]QGTFTSDYSKYLDEKAAKDFVQWLLDHHPSSGQPPPSC; bridge 16-20) [compound 77] | 6.6 | 6.7 | 1.7 | 
